Consider 21 sequences from the DeepSol protein solubility set.

The data set is described as follows: soluble on expression in E. coli; label from the status in PepcDB or PDB records.
For “MAHHHHHHSGTVTDDYLANNVDYASGFKGPLPMPPSKHIAIVACMDARLDVYRMLGIKEGEAHVIRNAGCVVTDDVIRSLAISQRLLGTREIILLHHTDCGMLTFTDDDFKRAIQDETGIRPTWSPESYPDAVEDVRQSLRRIEVNPFVTKHTSLRGFVFDVATGKLNEVTP”, the “soluble on expression in E. coli” value is “soluble”.

Take “MAHHHHHHSLIKSMTGFSRVEKVSGPYQFRVEMKSLNSKGLNIINQLPGYLSMKEIELNNLVQEYVSRGKVQTRVQVKFLEPPKVLEIDKNVVRAYYSMLDEIVGELSLPEPVKLSDLLNFREVFRIELSDEEIENIWNHLVPILREALEKLVEERKKEGQKIGADLKRILEDLSSRVEEIEKISDQLPALYREKIKEEVEKILPQDVSVKEDILENHVAFMATKADIREEITRLRSHIKRALELIESDEPVGMNLDFLGQEMLRELNTILSKSISGEITSLALEGKVLVSQFREQIQNVEEG”: the “soluble on expression in E. coli” value is listed as “soluble”.

Consider “MAHHHHHHSLKDKPLKLTVEKLVYGGYGFSRLNGKAVFVRFASPKELVEAKVVKEKKDYTEAVVTKVLISSPARRKAPCPYYGECGGCQIQHLNYEEQLRSKKDILLESLERIGKIKEVPYEGEIPSKKEFNYRVRVQFKIQENRVGFYRWDVKEVVDVEECLLAHERINELIPHIREVLKVIKDLQEVHVNYSPTRDEATLKFVTITHTDEKLLQNILENVLPEWVVGIGDYGKVGNSLVKRYKVGREHIFMDVGKWQYRVSNDSFFQVNYTLWEDFLKEVLDFSESYKKGLDLHCGVGFFTIPLSEQGNFIEGADANPSAIKDAEYNAKINNRDNVIFEEATAFKHLKRRIGEVINLVVVDPPRSGLLREERDLLLKNKPDKIVYISCNPTTFARDLKILTKGGYELKRLKLIDNFPQTYHIESIALLEVKDEG”, for which the “soluble on expression in E. coli” value is reported as “soluble”.

Regarding “MAHHHHHHSLKILFVAAEGAPFAKTGGLGDVIGALPKSLVKNNNEVSVILPYYDVVDAKFGDQIEDLFYFFTNVGWRREYVGIKHIFRDGVDFYFIDNKHYFYRGQIYGEFDDGERFAYFQLAALEAMEKIQFIPDILHVHDYHTAMIPYLLKEKYHWINAYHGIKTVFTIHNIEFQGQFNPSMLGELFGVGDERYRDGTLRWNDCLNWMKAAVLYADRVTTVSPSYAKEIMTPEFGKGLDQIMRMESGKLSGVVNGIDTDLFDPETDPHLAVHFSKDDLSGKAKNKAALQERVGLPVREDVPLVGIVSRLTDQKGFQLVVDQLNTMMQLDLQIVLLGTGYADFENAFAWFGHAYPDKMSANITFDLELAQQIYAASDIFLMPSAFEPCGLSQMMAMRYGTLPLVHEVGGLRDTVIPYNEFEKTGTGFGFQDFSGYWLTKTLEAALDVYYNRKEDWKILQKNAMTTDFSWDTASQSYEHLYKELAEG”, the “soluble on expression in E. coli” value is on record as “soluble”.

Turning to “MAHHHHHHSLSILVTRPSPAGEELVSRLRTLGQVAWHFPLIEFSPGQQLPQLADQLAALGESDLLFALSQHAVAFAQSQLHQQDRKWPRLPDYFAIGRTTALALHTVSGQKILYPQDREISEVLLQLPELQNIAGKRALILRGNGGRELIGDTLTARGAEVTFCECYQRCAIHYDGAEEAMRWQAREVTMVVVTSGEMLQQLWSLIPQWYREHWLLHCRLLVVSERLAKLARELGWQDIKVADNADNDALLRALQEG”, the “soluble on expression in E. coli” value is listed as “soluble”.

With “MAHIVQTHKLTLHDVAIDQALVYSSDSNCAELKRTFQVELAHGYNEVKVQNLPFDLVQDSIRVSGAGEAVIHDVSVKNQEGAEFVIPERVLAIKAIFEEKERAKDKVADSRVAVQKRIEGLDNLITEVAKHGKDGAFHFDGRTIESLNALHGFHQDTTVDLRAQIRTLDQDLRKAEEEYARASQDYDNTGYRWRNSAQYASIIVESEAGGAAQLTITYQVNNVSWTPFYDIRVTAGVEAEMHVTYFGKVRQYSGEDWKTVPLVLSTARPAHGVKQLPKLGALEASIVVPEPECNRGGRGGYGGGYAQDSVVMACAAPMMEMGRSRKSMKMSYAAVKSSNIASEFSIGRPATIDDRTDEYKVNIGQFTLDTKLSNVTVPSRNATAFLVANSVNTSDYPLVAGQASIFLDGAFVNKTEFEDAVVSQKFEVSLGVDPNIRIEYKPVRNYQEQSGTVEKINSQVTEKTTAVTNLRPNSVLLTIREQLPRSTDSRIKVHLNTPEAVEVDEASVEPTVGAAITPEKILDYTVQLAPGQSSTFVVKYTTEHPQAEQIRYEEKF”, the “soluble on expression in E. coli” value was “not soluble”.

Regarding “MAHKKSNRQLIDACRQNFLSHLRLREWRDVHSQLLTVVREHGWRLNEAEATYEQIHLALLTGLLGNLGMKADDDPHYLGARGIKFYLWPGSALAKKAGRWVMAAELVETSRLYARCLAKIEPEWIEKVGAHLLKKSLSEPLEHHHHHH”, the “soluble on expression in E. coli” value is reported as “soluble”.

Take “MAHRTFRLCRLRIRRLRDHPLRQDGMVDYSTTATTNTLYLLHTGHHVPPPPSHRNPPFSFRSFRPPIQPCSPNSHHVDNVIILASAIK”: the “soluble on expression in E. coli” value is “not soluble”.

On to “MAIAYFIPDQAQLLARSYQQNGQQTAASPRTTATAAAPSQQQQQSQQQQQQQRHHHQQQRPQFRANISVPLGSQQGSMTMSEFGCWDLLAQIFCYALRIYSYSSSQRQPTVIQISFEISSGGQNNDEDDVTDATSKEN”, for which the “soluble on expression in E. coli” value is given as “not soluble”.

Consider “MAIEHFSTLKQHLSSQIIGQEALVENLLIALLANGHLIVEGPPGLAKTRAVNALAQGLEADFHRIQFTPDLLPADLTGTDIYRPEDGTFVFQPGPLFQNLVLADEINRAPAKVQSALLEAMAEGQITVGRKTYDLPELFLVMATQNPIEQEGTYPLPEAQLDRFLMHIEIGYPDAESELAILKLNRGEALRSNANHGNDSSEKETSTKENSLRTLSQSEIFSAREQVLNIHMAPSLENYIVDLIIATRQPEKYDDKLSTWLAFGASPRATIALDRCARARAWLHNRDFVSPEDIQAVFHNALRHRILLSYQAEAEGITANQVLDYILTQVAVALEHHHHHH”, for which the “soluble on expression in E. coli” value is reported as “soluble”.

Turning to “MAIELHGAISPQDDGSFDSKTLGTICWGDHNNVYMVIGNQTLEGKISKIDRPLLVIQKSDKNHQENGEKNATVNAVIRKKLVFKTRPRPLVLSTVV”, the “soluble on expression in E. coli” value is “soluble”.

Regarding “MAIFARETMDLIATASFPSIKKLSSGFWLDLFESTLTSGNELVLLPPTRYSYWSIMAVANPTPLKAPRRLDLVTKSLLAAPLLFHLVCQSNNPVREDVLDCWVWPFFCSGNTALMKSPKFWALLGVGSKVVLPWLCPLLGSRNAGKA”, the “soluble on expression in E. coli” value was “soluble”.

Turning to “MAIKSPPTLIPLSHLSGEELQAHLRFNRVTDEKGRYLPFDELQYRIKKGENVDVAWTLTRLARNAAIQRINYCNEAGEQAGFNITPVIAEACELVDKRATALALKDQTERLRGAGAELSQLRLEEPITSSQLEGANTTTLVARKMLETGRSPRTEDEHMIAGNARLMAEIPHLLAEPLTPALIRQLHAIGMGGINDAKYRPGEFRETDDVVIADYDGNIVHQPPAAALLPERLEKVCQWLNSHEGYIHPLVRACILHFMLAHEHPFRDGNGRTSRALFYWYMLKSGYDVFKYISISRLLHAAPVKYAASYQYTESDGMDLTYFLEYQAGVIKRALQNWQQHIDEITQRSAKLDSVLFSSGVLKRLNPRQVTLLNVMLANPGKEYTVAEISASLGVSDNTVRADLRTIVKEGFAQEKKINDQQAVYFAHYPL”, the “soluble on expression in E. coli” value was “not soluble”.

With “MAIYSFKMENISRGEGQSSVNSAAYRHRKVFFDNRTGEVCGRKTAHKKDLAFAQIFAPENTPSDLIVDSETLWNAVEASEKRKDARLAKEFKIALPAELTPEQSIELTKAFVLEHFTKQGIITDVVIHDINGHNPHIHIMGTTREVLSTGFGKKVREWDKPETLDSWRKGWQNICNEFLDLYGHDERIDHRSIRVQYKEALEQATAAATNEEKAIWLAKAIETNRDPILHIPRDRWGTLAAQEQRAAEQAIRDEQKKEAVEAYFTFKDLPLDIVVDVASFRVHALAEPEEIVIPDNTGKGSSTGSQKPVLVAPVPHTRTTLKTPSTSTARTLKRAPVKVKRKKVEPRQSGVFKRFTLLVVDYIREKFVWAKKKPVPVSVDAEHDERIAENYVFDEVQGIYVPRAEHERRARFNSDTYSPTPDEIRRFPRRPLKPDQANNTLDYIPTFSWDRKPSVLQLKPSGYRDKELEHHHHHH”, the “soluble on expression in E. coli” value is reported as “not soluble”.

Take “MAKEKIIVENEQSVEEKLAALSKLQNTLSEIDKIKTLRGELPLEVQDLEDEIAGMQTRLENFTAGSKQLNQAVTTEKEKISTAKTLLEKYKKQLDEVRNNREFDNLSKEIEFQELEIQLSEKKIKEYNVEIQQRKTDIATLKEVLEEHSEVLAEKRGELDTIIAETKQEEEKLREKAKKLEAKIEPRLLTAFKRIRKAAHNGLAVVPVERDACGGCFNKIPPQKQLDVKLRKKIIVCEYCGRIMVDPEMGA”: the “soluble on expression in E. coli” value is listed as “not soluble”.

As for “MAKELCFEGITLKAFDEQYRSAINDFDLNERQQIYSSLPKEVIDDAINDVDRIANVAINDKNEVVGFFVLHRYYQHEGYDTPENVVYIRSLSINEKYQGFGYGTKIMMSLPQYVQGVFPDFNHLYLVVDAENDNAWNLYERAGFMHTATKEEGPIGKERLYYLDLDSKHVSSLKLEEESRSEVTNVHIINLMIDGQKVGFIALEQIGERMNIAAIEVDKSYRFNGIGSSALRQLPTYLRKNYDNLNVITMILFGENNDFKPLCLNSNFVEIEQTDDYVVFEKYLNY”, the “soluble on expression in E. coli” value is reported as “not soluble”.

Turning to “MAKINELLRESTTTNSNSIGRPNLVALTRATTKLIYSDIVATQRTNQPVAAFYGIKYLNPDNEFTFKTGATYAGEAGYVDREQITELTEESKLTLNKGDLFKYNNIVYKVLEDTPFATIEESDLELALQIAIVLLKVRLFSDAASTSKFESSDSEIADARFQINKWQTAVKSRKLKTGITVELAQDLEANGFDAPNFLEDLLATEMADEINKDILQSLITVSKRYKVTGITDSGFIDLSYASAPEAGRSLYRMVCEMVSHIQKESTYTATFCVASARAAAILAASGWLKHKPEDDKYLSQNAYGFLANGLPLYCDTNSPLDYVIVGVVENIGEKEIVGSIFYAPYTEGLDLDDPEHVGAFKVVVDPESLQPSIGLLVRYALSANPYTVAKDEKEARIIDGGDMDKMAGRSDLSVLLGVKLPKIIIDE”, the “soluble on expression in E. coli” value is “soluble”.

Take “MAKKKKEILFCDYYEDWVETYKVGAIEDVTLNKYYVAARQLRDICPKLLMSDFSRKDYQLIMNEYGKTHEKQTAKDFHHHIKAAILDAYHDGLLKSDPTYRAVIKGKEPGKKKLEHHHHHH”: the “soluble on expression in E. coli” value is “soluble”.

As for “MAKKKKKKSFNTTRPTDPPVYPVTVPFLGHIVQFGKNPLEFMQRCKRDLKSGVFTISIGGQRVTIVGDPHEHSRFFSPRNEILSPREVYTIMTPVFGEGVAYAAPYPRMREQLNFLAEELTIAKFQNFVPAIQHEVRKFMAENWKEDEGVINLLEDCGAMIINTACQCLFGEDLRKRLNARHFAQLLSKMESSLIPAAVFMPWLLRLPLPQSARCREARAELQKILGEIIVAREKEEASKDNNTSDLLGGLLKAVYRDGTRMSLHEVCGMIVAAMFAGQHTSTITTSWSMLHLMHPKNKKWLDKLHKEIDEFPAQLNYDNVMDEMPFAERCVRESIRRDPPLLMVMRMVKAEVKVGSYVVPKGDIIACSPLLSHHDEEAFPNPRLWDPERDEKVDGAFIGFGAGVHKCIGQKFALLQVKTILATAFREYDFQLLRDEVPDPDYHTMVVGPTLNQCLVKYTRKKKLPSHHHHHH”, the “soluble on expression in E. coli” value is “soluble”.

For the sequence “MAKKNPIQPGPEGYIPTPAAFQGCDLPPPGKALLYGEIVDEEVAMREAAKALLTRRNPTIFPGPLVLWGWNADAMEKAKAVLELAMEIPNCRIIPMPDYRPKYPKIDPEAEINPNHPNLTILHNKIEACIFVGVHCHYANLSLRMIRAGTNCFTIALCAEMGHEDAMVSLRDVHADEIRKFRDVVVEVRKELGIEWEPKLPPENPSLPKEDWVKISPLDFGEYAYLLIPRRGEIVEESE”, the “soluble on expression in E. coli” value was “not soluble”.

In the case of “MAKLFFRYAAMNSGKSTQLLQIANNYESMDKKVALYTSAIDDRYGVGMITSRLNIQRESNTFDAGFDFLAHDYGDTACVLVDEAQFMTPEQAQQLHRLAHKRNIPVICFGLRTDFQGHPFPGSAWLLSLADDVEEIKTICHCGRKATMHIRIDGDGRRVKEGPQVEIGGEARYRAVCGRCFHHDLEHHHHHH”, the “soluble on expression in E. coli” value is “soluble”.
